molecular target: T1, biotinylated Human CD3E and CD3D (Acro Biosystems Cat CDD-H82W1) (human, UniProt P07766 23-126; P04234 22-105); assay: SPR (Biacore 4000), CD3 captured on streptavidin chip;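 also: bispecific antibodies or Fabs injected at several concentrations over CD3 surfaces of varying density, sensorgrams fitted with a simple kinetic model to obtain association, dissociation and equilibrium constants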
T1 construct: also called biotinylated CD3

| Binder | Kd [nM] | koff [s⁻¹] | kon [M⁻¹ s⁻¹] |
| --- | --- | --- | --- |
| hPGT121.66 AAS + W/huSP34.40.13 scFv AAS + SAV + R (bispecific antibody, human IgG1, lambda, L234A L235A, also called 276; bispecific 276) EVQLVESGGGLVQPGGSLRLSCAASGFTFNTYAMNWVRQAPGKGLEWVGRIRSKYNNYAAYYADSVKSRFTISRDDSKNSLYLQMNSLRTEDTAVYYCVRHGNFGHSYVSWFAYWGQGTLVTVSSGGGGSGGGGSGGGGSGGGGSQAVVTQEPSLTVSPGGTVTLTCGSSTGAVTTGHYANWVQQKPGQAPRGLIGGTSNRAPGVPARFSGSLLGGKAALTISGAQPEDEAEYYCALWYSNRWVFGGGTKLTVLEPKSSDKTHTCPPCPAPEAAGGPSVFLFPPKPKDTLMISRTPEVTCVVVDVSHEDPEVKFNWYVDGVEVHNAKTKPREEQYNSTYRVVSVLTVLHQDWLNGKEYKCKVSNKALPASIEKTISKAKGQPREPQVYTLPPSREEMTKNQVSLSCAVKGFYPSDIAVEWESNGQPENNYKTTPPVLDSDGSFFLVSKLTVDKSRWQQGNVFSCSVMHEALHNRYTQKSLSLSPGK heavy: QMQLQESGPGLVKPSETLSLTCSVSGASISDSYWSWIRRSPGKGLEWIGYVHKSGDTNYNPSLKSRVHLSLDTSKNQVSLSLTGVTAADSGKYYCARTLHGRRIYGIVAFNEWFTYFYMDVWGTGTQVTVSSASTKGPSVFPLAPSSKSTSGGTAALGCLVKDYFPEPVTVSWNSGALTSGVHTFPAVLQSSGLYSLSSVVTVPSSSLGTQTYICNVNHKPSNTKVDKKVEPKSCDKTHTCPPCPAPEAAGGPSVFLFPPKPKDTLMISRTPEVTCVVVDVSHEDPEVKFNWYVDGVEVHNAKTKPREEQYNSTYRVVSVLTVLHQDWLNGKEYKCKVSNKALPASIEKTISKAKGQPREPQVYTLPPSREEMTKNQVSLWCLVKGFYPSDIAVEWESNGQPENNYKTTPPVLDSDGSFFLYSKLTVDKSRWQQGNVFSCSVMHEALHNHYTQKSLSLSPGK light: not shown | 1.8 | 0.0063 | 3.6e+06 |
| hPGT121.66 AAS + W/huSP34.41.13 scFv AAS + SAV + R (bispecific antibody, human IgG1, lambda, L234A L235A) EVQLVESGGGLVQPGGSLSLSCAASGFTFNTYAMNWVRQAPGKGLEWVGRIRSKYNNYATYYADSVKSRFTISRDDSKNSLYLQMNSLRTEDTAVYYCVRHGNFGHSYVSWFAYWGQGTLVTVSSGGGGSGGGGSGGGGSGGGGSQAVVTQEPSLTVSPGGTVTLTCGSSTGAVTTGHYANWVQQKPGQAPRGLIGGTSNRAPGVPARFSGSLLGGKAALTISGAQPEDEAEYYCALWYSNRWVFGGGTKLTVLEPKSSDKTHTCPPCPAPEAAGGPSVFLFPPKPKDTLMISRTPEVTCVVVDVSHEDPEVKFNWYVDGVEVHNAKTKPREEQYNSTYRVVSVLTVLHQDWLNGKEYKCKVSNKALPASIEKTISKAKGQPREPQVYTLPPSREEMTKNQVSLSCAVKGFYPSDIAVEWESNGQPENNYKTTPPVLDSDGSFFLVSKLTVDKSRWQQGNVFSCSVMHEALHNRYTQKSLSLSPGK heavy: QMQLQESGPGLVKPSETLSLTCSVSGASISDSYWSWIRRSPGKGLEWIGYVHKSGDTNYNPSLKSRVHLSLDTSKNQVSLSLTGVTAADSGKYYCARTLHGRRIYGIVAFNEWFTYFYMDVWGTGTQVTVSSASTKGPSVFPLAPSSKSTSGGTAALGCLVKDYFPEPVTVSWNSGALTSGVHTFPAVLQSSGLYSLSSVVTVPSSSLGTQTYICNVNHKPSNTKVDKKVEPKSCDKTHTCPPCPAPEAAGGPSVFLFPPKPKDTLMISRTPEVTCVVVDVSHEDPEVKFNWYVDGVEVHNAKTKPREEQYNSTYRVVSVLTVLHQDWLNGKEYKCKVSNKALPASIEKTISKAKGQPREPQVYTLPPSREEMTKNQVSLWCLVKGFYPSDIAVEWESNGQPENNYKTTPPVLDSDGSFFLYSKLTVDKSRWQQGNVFSCSVMHEALHNHYTQKSLSLSPGK light: not shown | 2.8 | 0.0085 | 3e+06 |

molecular target: T2, CD3 expressed on cell-surface of primary human T cells (human, UniProt P07766 23-207; P04234 22-171); assay: flow cytometry competition vs murine SP34-AF488 on human T cells, n = 1
T2 construct: also called cell-surface CD3; human CD3

| Binder | IC50 [µg/mL] |
| --- | --- |
| huSP34.8.6 Fab-HF (Fab, V domains shown) VH: EVQLVESGGGLVQPGGSLRLSCAASGFTFSDYAMNWVRQAPGKGLEWVGRTRSKYNNYATYYAASVKGRFTISRDDSKNSLYLQMNSLKTEDTAVYYCVRHGNFGHSYVSWFAVWGQGTLVTVSS VL: QAVVTQPPSLTVSPGGTVTLTCGSSTGAVTTGHYANWVQQKPGQAPRGLIGGTSNRAPGVPARFSGSLSGGKAALTISGAQPEDEAEYYCALWYSARWVFGGGTKLTVL | > 20 |
| huSP34.9.6 Fab-HF (Fab, V domains shown) VH: EVQLVESGGGLVQPGGSLRLSCAASGFTFSDYAMNWVRQAPGKGLEWVGRTRSKYNSYATYYAASVKGRFTISRDDSKNSLYLQMNSLKTEDTAVYYCVRHGNFGNSYVSWFAVWGQGTLVTVSS VL: QAVVTQPPSLTVSPGGTVTLTCGSSTGAVTTGHYANWVQQKPGQAPRGLIGGTSNRAPGVPARFSGSLSGGKAALTISGAQPEDEAEYYCALWYSARWVFGGGTKLTVL | > 20 |
| huSP34.10.6 Fab-HF (Fab, V domains shown) VH: EVQLVESGGGLVQPGGSLRLSCAASGFTFSDYAMNWVRQAPGKGLEWVGRTRSKYNSYATYYAASVKGRFTISRDDSKNSLYLQMNSLKTEDTAVYYCVRHGNFGHSYVSWFAVWGQGTLVTVSS VL: QAVVTQPPSLTVSPGGTVTLTCGSSTGAVTTGHYANWVQQKPGQAPRGLIGGTSNRAPGVPARFSGSLSGGKAALTISGAQPEDEAEYYCALWYSARWVFGGGTKLTVL | > 20 |
| huSP34.7.6 Fab-HF (Fab, V domains shown) VH: EVQLVESGGGLVQPGGSLRLSCAASGFTFSDYAMNWVRQAPGKGLEWVGRTRSKYNNYATYYAASVKGRFTISRDDSKNSLYLQMNSLKTEDTAVYYCVRHGNFGNSYVSWFAVWGQGTLVTVSS VL: QAVVTQPPSLTVSPGGTVTLTCGSSTGAVTTGHYANWVQQKPGQAPRGLIGGTSNRAPGVPARFSGSLSGGKAALTISGAQPEDEAEYYCALWYSARWVFGGGTKLTVL | > 20 |
| huSP34.6.6 Fab-HF (Fab, V domains shown) VH: EVQLVESGGGLVQPGGSLRLSCAASGFTFSTYAMNWVRQAPGKGLEWVGRIRSKYNNYATYYADSVKGRFTISRDNSKNTLYLQMNSLRAEDTAMYYCVRHGNFGNSYVSWFAVWGQGTLVTVSS VL: QAVVTQPPSLTVSPGGTVTLTCGSSTGAVTTGHYANWVQQKPGQAPRGLIGGTSNRAPGVPARFSGSLSGGKAALTISGAQPEDEAEYYCALWYSARWVFGGGTKLTVL | > 20 |
| huSP34.9.4 Fab-HF (Fab, V domains shown) VH: EVQLVESGGGLVQPGGSLRLSCAASGFTFSDYAMNWVRQAPGKGLEWVGRTRSKYNSYATYYAASVKGRFTISRDDSKNSLYLQMNSLKTEDTAVYYCVRHGNFGNSYVSWFAVWGQGTLVTVSS VL: QAVVTQEPSLTVSPGGTVTLTCGSSTGAVTTSHYANWVQQKPGQAPRGLIGGTSKRAPWTPARFSGSLLGGKAALTLSGAQPEDEAEYYCALWYSALWVFGGGTKLTVL | > 20 |
| huSP34.9.5 Fab-HF (Fab, V domains shown) VH: EVQLVESGGGLVQPGGSLRLSCAASGFTFSDYAMNWVRQAPGKGLEWVGRTRSKYNSYATYYAASVKGRFTISRDDSKNSLYLQMNSLKTEDTAVYYCVRHGNFGNSYVSWFAVWGQGTLVTVSS VL: QAVVTQEPSLTVSPGGTVTLTCGSSTGAVTTGHYANWVQQKPGQAPRGLIGGTSNRAPWTPARFSGSLLGGKAALTLSGAQPEDEAEYYCALWYSARWVFGGGTKLTVL | > 20 |
| huSP34.10.2 Fab-HF (Fab, V domains shown) VH: EVQLVESGGGLVQPGGSLRLSCAASGFTFSDYAMNWVRQAPGKGLEWVGRTRSKYNSYATYYAASVKGRFTISRDDSKNSLYLQMNSLKTEDTAVYYCVRHGNFGHSYVSWFAVWGQGTLVTVSS VL: QAVVTQEPSLTVSPGGTVTLTCGSSTGAVTTSNYANWVQQKPGQAPRGLIGGTSNRAPWTPARFSGSLLGGKAALTLSGAQPEDEAEYYCALWYSNLWVFGGGTKLTVL | > 20 |
| huSP34.9.1 Fab-HF (Fab, V domains shown) VH: EVQLVESGGGLVQPGGSLRLSCAASGFTFSDYAMNWVRQAPGKGLEWVGRTRSKYNSYATYYAASVKGRFTISRDDSKNSLYLQMNSLKTEDTAVYYCVRHGNFGNSYVSWFAVWGQGTLVTVSS VL: QAVVTQEPSLTVSPGGTVTLTCRSSTGAVTTSNYANWVQQKPGQAPRGLIGGTNKRAPWTPARFSGSLIGDKAALTLSGAQPEDEAEYYCALWYSNLWVFGGGTKLTVL | > 20 |
| huSP34.9.2 Fab-HF (Fab, V domains shown) VH: EVQLVESGGGLVQPGGSLRLSCAASGFTFSDYAMNWVRQAPGKGLEWVGRTRSKYNSYATYYAASVKGRFTISRDDSKNSLYLQMNSLKTEDTAVYYCVRHGNFGNSYVSWFAVWGQGTLVTVSS VL: QAVVTQEPSLTVSPGGTVTLTCGSSTGAVTTSNYANWVQQKPGQAPRGLIGGTSNRAPWTPARFSGSLLGGKAALTLSGAQPEDEAEYYCALWYSNLWVFGGGTKLTVL | > 20 |
| huSP34.10.4 Fab-HF (Fab, V domains shown) VH: EVQLVESGGGLVQPGGSLRLSCAASGFTFSDYAMNWVRQAPGKGLEWVGRTRSKYNSYATYYAASVKGRFTISRDDSKNSLYLQMNSLKTEDTAVYYCVRHGNFGHSYVSWFAVWGQGTLVTVSS VL: QAVVTQEPSLTVSPGGTVTLTCGSSTGAVTTSHYANWVQQKPGQAPRGLIGGTSKRAPWTPARFSGSLLGGKAALTLSGAQPEDEAEYYCALWYSALWVFGGGTKLTVL | > 20 |
| huSP34.10.5 Fab-HF (Fab, V domains shown) VH: EVQLVESGGGLVQPGGSLRLSCAASGFTFSDYAMNWVRQAPGKGLEWVGRTRSKYNSYATYYAASVKGRFTISRDDSKNSLYLQMNSLKTEDTAVYYCVRHGNFGHSYVSWFAVWGQGTLVTVSS VL: QAVVTQEPSLTVSPGGTVTLTCGSSTGAVTTGHYANWVQQKPGQAPRGLIGGTSNRAPWTPARFSGSLLGGKAALTLSGAQPEDEAEYYCALWYSARWVFGGGTKLTVL | > 20 |
| huSP34.10.1 Fab-HF (Fab, V domains shown) VH: EVQLVESGGGLVQPGGSLRLSCAASGFTFSDYAMNWVRQAPGKGLEWVGRTRSKYNSYATYYAASVKGRFTISRDDSKNSLYLQMNSLKTEDTAVYYCVRHGNFGHSYVSWFAVWGQGTLVTVSS VL: QAVVTQEPSLTVSPGGTVTLTCRSSTGAVTTSNYANWVQQKPGQAPRGLIGGTNKRAPWTPARFSGSLIGDKAALTLSGAQPEDEAEYYCALWYSNLWVFGGGTKLTVL | > 20 |

Source: patent US20230056252A1 (Gilead, published 2023)
